{"source": "IntAct's records for PubMed 22770219", "parents": {"B1": {"name": "Cadherin-1 (Mus musculus), P09803 (parent)", "chain": "MGARCRSFSALLLLLQVSSWLCQELEPESCSPGFSSEVYTFPVPERHLERGHVLGRVRFEGCTGRPRTAFFSEDSRFKVATDGTITVKRHLKLHKLETSFLVRARDSSHRELSTKVTLKSMGHHHHRHHHRDPASESNPELLMFPSVYPGLRRQKRDWVIPPISCPENEKGEFPKNLVQIKSNRDKETKVFYSITGQGADKPPVGVFIIERETGWLKVTQPLDREAIAKYILYSHAVSSNGEAVEDPMEIVITVTDQNDNRPEFTQEVFEGSVAEGAVPGTSVMKVSATDADDDVNTYNAAIAYTIVSQDPELPHKNMFTVNRDTGVISVLTSGLDRESYPTYTLVVQAADLQGEGLSTTAKAVITVKDINDNAPVFNPSTYQGQVPENEVNARIATLKVTDDDAPNTPAWKAVYTVVNDPDQQFVVVTDPTTNDGILKTAKGLDFEAKQQYILHVRVENEEPFEGSLVPSTATVTVDVVDVNEAPIFMPAERRVEVPEDFGVGQEITSYTAREPDTFMDQKITYRIWRDTANWLEINPETGAIFTRAEMDREDAEHVKNSTYVALIIATDDGSPIATGTGTLLLVLLDVNDNAPIPEPRNMQFCQRNPQPHIITILDPDLPPNTSPFTAELTHGASVNWTIEYNDAAQESLILQPRKDLEIGEYKIHLKLADNQNKDQVTTLDVHVCDCEGTVNNCMKAGIVAAGLQVPAILGILGGILALLILILLLLLFLRRRTVVKEPLLPPDDDTRDNVYYYDEEGGGEEDQDFDLSQLHRGLDARPEVTRNDVAPTLMSVPQYRPRPANPDEIGNFIDENLKAADSDPTAPPYDSLLVFDYEGSGSEAASLSSLNSSESDQDQDYDYLNEWGNRFKKLADMYGGGEDD"}}, "data": [{"variants_of": "B1", "conditions": "with skp2_human SKP2, Q13309", "values": [{"variant": "S840A;S842A;S846A;S849A;S852A;S855A", "effect of a mutation on the interaction": "decreasing interaction strength"}]}]}
